B1: Flag-RAGE wild type (LV-Flag-RAGE-wt, wild-type ctRAGE) [mouse] / mitogen-activated protein kinase kinase 3 (MKK3), endogenous in mouse hippocampus and HT22 cells [mouse (endogenous in hippocampus and in HT22)] (parent)
chain 1: GQNITARIGEPLVLSCKGAPKKPPQQLEWKLNTGRTEAWKVLSPQGGPWDSVARILPNGSLLLPATGIVDEGTFRCRATNRRGKEVKSNYRVRVYQIPGKPEIVDPASELTASVPNKVGTCVSEGSYPAGTLSWHLDGKLLIPDGKETLVKEETRRHPETGLFTLRSELTVIPTQGGTHPTFSCSFSLGLPRRRPLNTAPIQLRVREPGPPEGIQLLVEPEGGIVAPGGTVTLTCAISAQPPPQVHWIKDGAPLPLAPSPVLLLPEVGHEDEGTYSCVATHPSHGPQESPPVSIRVTETGDEGPAEGSVGESGLGTLALALGILGGLGVVALLVGAILWRKRQPRREERKAPESQEDEEERAELNQSEEAEMPENGAGGP
chain 2: MESPAASPPASLPQTKGKSKRKKDLRISCVSKPPVSNPTPPRNLDSRTFITIGDRNFEVEADDLVTISELGRGAYGVVEKVRHAQSGTIMAVKRIRATVNTQEQKRLLMDLDINMRTVDCFYTVTFYGALFREGDVWICMELMDTSLDKFYRKVLEKNMKIPEDILGEIAVSIVRALEHLHSKLSVIHRDVKPSNVLINKEGHVKMCDFGISGYLVDSVAKTMDAGCKPYMAPERINPELNQKGYNVKSDVWSLGITMIEMAILRFPYESWGTPFQQLKQVVEEPSPQLPADQFSPEFVDFTSQCLRKNPAERMSYLELMEHPFFTLHKTKKTDIAAFVKEILGEDS

Variants of B1 are the subject of one assay. Kind of assay: co-immunoprecipitation (IP: Flag-RAGE, IB: MKK3), optical density of blot. Particulars: with mitogen-activated protein kinase kinase 3 (MKK3), HT22 cells with RAGE-shRNA knockdown, high glucose, n = 3, parent: 6, read off a plot.
On to chain 1 R340A K341A R342A Q343A, for which the response (fold change to HG + RAGE-shRNA group) worked out at 1.6.

The assay is the same for the next values; noted with them: with mitogen-activated protein kinase kinase 3 (MKK3), hippocampus of db/db mice with LV-RAGE-shRNA, n = 3, parent: 3, read off a plot.
With chain 1 R340A K341A R342A Q343A, the response (fold change to db/db + RAGE-shRNA group) came out at 1.4.

Another assay covers variants of B1. Kind of assay: co-immunoprecipitation (IP: MKK3, IB: Flag-RAGE), optical density of blot. To be noted: with mitogen-activated protein kinase kinase 3 (MKK3), HT22 cells with RAGE-shRNA knockdown, high glucose, n = 3, parent: 6.8, read off a plot.
chain 1 R340A K341A R342A Q343A: the response (fold change to HG + RAGE-shRNA group) stood at 1.8.

The same assay, now with this note: with mitogen-activated protein kinase kinase 3 (MKK3), hippocampus of db/db mice with LV-RAGE-shRNA, n = 3, parent: 3.4, read off a plot.
As to chain 1 R340A K341A R342A Q343A, the response (fold change to db/db + RAGE-shRNA group) was determined as 1.9.

The values above are taken from article PMC8844116.
